# Reference: article PMC5389562
# T1: mCherry-U2AF35, Q01081
# T1 chain: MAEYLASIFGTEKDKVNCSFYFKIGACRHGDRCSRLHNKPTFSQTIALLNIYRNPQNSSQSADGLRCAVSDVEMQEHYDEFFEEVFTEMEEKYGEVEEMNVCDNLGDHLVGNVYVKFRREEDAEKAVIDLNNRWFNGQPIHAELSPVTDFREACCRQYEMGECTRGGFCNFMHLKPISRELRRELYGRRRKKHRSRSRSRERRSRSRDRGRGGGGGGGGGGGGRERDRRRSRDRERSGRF
# B1: mCherry-U2AF35, Q01081 1-240 (natural protein)
# chain: T1 chain
# Legend:
# mCherry-U2AF35, Q01081 [1] = molecular target: T1, mCherry-U2AF35, Q01081; assay: single-molecule photobleaching step counting (TIRF microscopy); nuclear extract in splicing conditions, no exogenous pre-mRNA, ATP depleted (−ATP), in the presence of ribonuclease; diluted and applied to cover slips; labeled protein spots bleaching in one or two steps; conditions: remark: other sources report otherwise
# mCherry-U2AF35, Q01081 [2] = molecular target: T1, mCherry-U2AF35, Q01081; assay: single-molecule photobleaching step counting (TIRF microscopy); nuclear extract in splicing conditions, no exogenous pre-mRNA, with ATP (+ATP), in the presence of ribonuclease; diluted and applied to cover slips; labeled protein spots bleaching in one or two steps; conditions: remark: other sources report otherwise
binder,measurement,setting,value
B1,"molecules bleaching in 1 step (of 2 versus 1 steps), −ATP","mCherry-U2AF35, Q01081 [1]",189 molecules
same,"molecules bleaching in 2 steps (of 2 versus 1 steps), −ATP","mCherry-U2AF35, Q01081 [1]",33 molecules
same,"molecules bleaching in 1 step (of 2 versus 1 steps), +ATP","mCherry-U2AF35, Q01081 [2]",218 molecules
same,"molecules bleaching in 2 steps (of 2 versus 1 steps), +ATP","mCherry-U2AF35, Q01081 [2]",21 molecules
